# Source: a protein production outcome set (Wang et al. 2014)
# Experiment: label from the status in PepcDB records
# 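Further: failed if final PepcDB status was selected cloned or expressed and not failed if soluble or beyond.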
row,Sequence,protein production
1,MMFDFDKIIERQSDKCRKWDHAFVCSRFGDVPESFIPLWIADMDFTSPPAVIDGFRRIVEHGTFGYTWCFDEFYDAVIAFQRKRHQVEVEKSWITLTYGTVSTLHYTIQAYCKPGDSVMMNTPVYDPFAMAAQRQGVQVLANPLRVEENRYQLDFNLIEEQLKTYRPTLWFFCSPHNPSGRIWREEEIRQVSDLCQRYGTILVVDEVHAEHILDGKFVSCLTSGCAAQDNLIVLTSPNKALKLGGLKTSYSMIPDDSLRQRFRQQLEKNSITSPNLFGVWGIILAYQHGLPWLDALNDYLQGNARYLADALQTHFPAWKMMTPESSYLAWIDVSADESSATQLTQHFARQAGVVIEDGSHYVQNGENYLQINFGSQRYWLERSTNRMQ,failed
2,MMFEGIRIARQMGHNIAIVSPRVDVIIEISHRIKDAFIDEHIDVLHQSSRQQYNGHFVIATIHQLLRFKQHFDTVFVDEVDAFPLSMDPQLSNAIQLASKSNHSHIFMTATPPRHFLKQFPPEKIIKLPARFHRSPLPIPKFKYFKLKSTRKQNLLLNIFRYQINQQRFTLVFINNIEIMNKMYQQYKMDIPDLICVHSEDDLRFEKIEALRRGQHKIVFTTTILERGFTMTHLDVVVVDAGSFQQEALIQIAGRVGRKQQSPSGLVLFLHEGVTLSMILAKRNIISMNRLAIKRGWIDA,failed
3,MMFGRFSDRAQKMIYYAQEEAQNFKHGYVGTEHILLGILRDENGKAQSLLANMGVTIEKVRRLIEEYEGFGDSDLYKEEPPLTPRTKRLLEISLLEARNLNHNYINPEHVLLALIRESEGVAFTILGNLGVDFERLRKEILDSLS,failed
4,MMILAWILVIIIISVITKWVVHLLTQRQSIYLTKLVITTSCIIQFIIVFFLMKAIVHYLAQALDVFYR,failed
5,MMITLVLSSFLSRDNIMRGMIYLIIATILAAIGWGASKMVVMTIPGDIFIGTRFLLASFVLAPFCFKQFRTLTGKQILALSGVGLVLSFALQVWVYAVSITTSLAEGAFIMSLAMIIAPIISWILFRNKPNKAFWIALPISILGMILLTLGNGWKLEASQLGFMLSALLLSMHFVLNKRIIGAITPLLSICVQLFVVGLSGCLYASLNSHPSFEITQHAVFWFLISTIVATAIRYLAQTLGQFSVNIETASLIMILEPVWTLVLSISVLHEVVAPQKLIGGAVIFLSLFVYIKLSRRLK,failed
6,MMKRALTGIQASGKQHLGNYLGVMQSLIELQEQCQLFVFVADLHSITVDFQPQALKQNNFDLVRTLLAVGLDPQKACLFLQSDLLEHSMMGYLMMVQSNLGELQRMTQFKAKKAEQTRNPNGTLNIPTGLLTYPALMAGDILLYQPDIVPVGNDQKQHLELTRDLAQRIQKKFKLKLRLPQFVQNKDTNRIMDLFDPTKKMSKSSKNQNGVIYLDDPKEVVVKKIRQATTDSFNKIRFAPKTQPGVTNMLTILKALLKEPVNQSLTNQLGNDLEAYFSTKSYLDLKNALTEATVNLLVNIQRKREQISREQVFNCLQAGKNQAQATARTTLALFYDGFGLGSQNIK,not failed
7,MMKRARIIYNPTSGRELFKKSLPEVLQKLEQAGYEASCHATTGPGDATVAARQAVERKFDVVIAAGGDGTLNEVVNGLVGHEFRPKFGIIPVGTTNDFARAIGVPRSIEEAADIICEGKTVPLDLGRANDTYFINIAGGGRITELTYEVPSKLKTVLGQLAYYLKGIEMLPSLHPTYVEIEYDGKLLQEEITMFLITNTRSVGGFEKVAPYASINDGLFDLLVLKKGSIADLIKAATQAQRGEHINNPKVLYTQANRIKVHSPDKLMINLDGEYGGDAPMEFENMYHCLELFVPEHQEDAL,failed
8,MMKTQAEINKRLDAYRKGTVDSPYRVKVWTSYDNRFYPMEPGCIDVDKSFHAQCADLTIDYILWLTDNEFRIRGNAKDAINPKKNKLPEGWKIVLNRPSTVPRKGWIAVFTDGTYWEYGHIGMVYDGGNTSRFQILEQNWNGWANKKPSLRWDNYYGLTHFIVPPVAKENKAVSSSKQQAPKQKVKKASTKKALPKITKHITGYNMDKRGYNPKGVVLHNDAGGMNYKQYYNNLVNANYDRLARGIAHAYVDRTGIWEAIDESRIAWHVADGTRPGSGNHDFYGIEVNQSLRASDKEFLENEQAVFQFAAEKLKKWGLPANRNTVRLHNEFSQTSCPHRSMVLHTGLDPLYHSITEHARLKLKDYFIKQIRAYMDGKKPTSKVVVSKPGSASTPATRKDANGYRENPHGTLYKEEHATFTANANIITRYVGPFTNMPQAGILKAGQTIIYDEVMKQDGYIWVGYTAYNGKRVYLPVRKWNRETDSVGKLWGVIS,failed
9,MMKVLLLEDVKNLGKAGEVCEVKDGYGNNFLIANQKAKLATNEVINKYKAEVKKKAEKEALEKAQKLQMVETLQTITLTIHKKVGANGSLFGAITKEEITERLKEQHASLNLDKKDIELKHPIKSTGIYEIEVKLGSGVVGVFKIDVVAE,failed
